Laboratory results reported in paper doi:10.1101/2020.03.08.831909.

Legend:
[1] = target: OptoMB_(C450V), light-insensitive, His-tagged, purified (Avena sativa) (UniProt O49003); assay: BLI
[2] = target: lit-stabilized OptoMB variant (group of the BLI measurements in the light); assay: BLI

Chain of YFP-SH2, purified (fusion of yellow fluorescent protein and SH2) (P00519 121-232): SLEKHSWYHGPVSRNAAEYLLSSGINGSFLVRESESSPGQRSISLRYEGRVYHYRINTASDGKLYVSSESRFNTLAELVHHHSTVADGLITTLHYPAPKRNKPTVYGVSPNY

**Q.** What does the source list for “YFP-SH2, purified (fusion of yellow fluorescent protein and SH2) (from UniProt P00519 121-232) (domain or fragment)”?
**A.** Kd [1]: 0.07 µM; Kd [2]: 11.2 µM; fold change of kon, dark against light [2]: < 46 fold; fold increase of koff, light against dark [2]: < 10 fold
